Experimental data published in the domain aggregation screens of Martell et al. (2025).

Assay: soluble fraction after stress (log2 fold change); higher = more stays soluble; pooled small domains, quantitative proteomics
Settings: stress: 50 degC
Procedure, shortened: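 Each library was heated to 50°C as a stress step. The libraries, made up of small protein domains, were pooled and analysed at high throughput by quantitative proteomics. The reported value is the base-two logarithm of the fold change in each protein's soluble amount after stress, taken as a measure of aggregation propensity. The higher the value, the more protein stays in solution.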
In the case of “HMEDDRMLVWFFRKSIQNGAQSEAEGRPIFEGKDYVHIQQPGERDYIEREAHQGDIGRWPRHWQAYQEGR”, the “soluble fraction (log2)” value is reported as -0.329.
With “HMEDEAVMQLPLSELKGLSPELLAILNGAGYEKLKDVLDLEREDIERIPGMTPERNEQLVAFLAELTE” the “soluble fraction (log2)” value was 0.0689.
For “HMEDELFSVARAAFPEYASKIHMNYGSTVQSIARQSGVLTVSETKQLNENQQISYLEYSNGAVVLALA”, the “soluble fraction (log2)” value was -0.0402.
In the case of “HMEDELVMERFDINELVKSVVNANELRATQKNLSITYDILDTPLYVWADEYKVEEVVTNYLS”, the “soluble fraction (log2)” value is reported as -0.143.
In the case of “HMEDIASESVKRVIRKIIDDEDKKSPLSDQAIVEILAKGEGIVIARRTVAKYREMMGILPSSKRKKH”, the “soluble fraction (log2)” value is reported as -0.209.
With “HMEDKIEESLEDNISELFAKTKDKYTLINDLYSKGYTVEELSRFSGLPSGEVRLVISLNSKN” the “soluble fraction (log2)” value was 0.0392.
With “HMEDKPITKEQKQAMFALLREHFSGDEGNAVYTAVLEREGLAPGDKIMSSVYDRLIDGINEAIRQKLEAGA” the “soluble fraction (log2)” value was 0.00629.
With “HMEDNLMIVVQVNGKKRSEIKVSIDASEDQIKQTALAEPNVQKFVEGHTIRKMILVPSKLLNIVV” the “soluble fraction (log2)” value was -0.0375.
In the case of “HMEDPKLAQLTEQERKILDLIADGLTNRQIAEKMFLAEKTVKNYVSTILAKMGMSNRSEAAAYVARLEAG”, the “soluble fraction (log2)” value is reported as 0.0787.
For “HMEDPPISQEQRQALFKMAHDHLGKDEGNKAILTLIQSHGLNSTTGMKVSTYNTIMEELVSTIQSLAA”, the “soluble fraction (log2)” value was -0.0686.
In the case of “HMEDPVAQEARAAFEVGRLLAAATGPVTLAAIRRAIDLPEERLEEILRRLEESGAVRRARDGWLPG”, the “soluble fraction (log2)” value is reported as 0.0888.
With “HMEDVDLFTKAMAALPNRYRDILLLRYSHGYTVEEISDILSMKPENVKKTIQRARKKLGEILEAEG” the “soluble fraction (log2)” value was -0.654.
For “HMEEDPVIAAQRFLNIFRQLHIFTAAKRKEFDELLLKQPASVKGMFASLPGGSVLQEYVNNLEQNAG”, the “soluble fraction (log2)” value was -0.137.
In the case of “HMEEFIEHTVEKGEFLSAIIVAYNQHLKSKGFKSITTRDILNANPKLKPELIQVGQKIKIPRRKK”, the “soluble fraction (log2)” value is reported as 0.29.
In the case of “HMEEFLSFIADILEVDKNTLTLETSQDDVETWDSLMQLRLLGEIEAKYGVMIPMERISTIKKLNDFYQYIK”, the “soluble fraction (log2)” value is reported as -0.513.
For “HMEEIIPIRFLRHRVKRRETIFGLTQKYNITEDQLKRYNTRLYSEALERKMVLQIPVFPEVDED”, the “soluble fraction (log2)” value was -2.31.
For “HMEEITLQEQINFIKDMLLNKEKFHLTDVITKKSKIYVVSLFLALLELIRLEEINFRQTQNFSDIIISRI”, the “soluble fraction (log2)” value was -0.138.
For “HMEELGKVRPELDGNEIAKVLGITPGPVLGRAYTYLLSVRLDEGPIGPDVARERLLAWWAEQPES”, the “soluble fraction (log2)” value was -1.28.
In the case of “HMEELIEMNGVVMEILPDSRYRVTLDNGHKLIAYTGGKMKKNHIRILAGDKVTLELSPYDINNGRITFRHI”, the “soluble fraction (log2)” value is reported as -1.28.
For “HMEELTDSELNNLYRELFIARSNASDGVGIIEQKTIKGITYRLSNDNNYLIKELGNKEYIYKNGVWEEYT”, the “soluble fraction (log2)” value was 0.0711.
For “HMEENNIVIYITGAVKKEGIYEIKENSRISDAIEAAGGLLENANIKDINLAYIIEDGVKIYIPTNEEVNK”, the “soluble fraction (log2)” value was -0.192.
With “HMEEPFRIEKKGDIYYISGKTVERLVAMTDLDNDSAVKRLQRTLKRMGVEDALREHGINPGDTVVIGNYEF” the “soluble fraction (log2)” value was -0.0245.
With “HMEEQIEVPVQINGKVRSKLTVAPETDEKQIEALALADPKVQQQLEGKRVLKVIVAQKRLVNIVA” the “soluble fraction (log2)” value was -0.0336.
For “HMEESTYQWNNFVRDFYASRVSAQYTNKLKVAAILWHHVKNTPQSKIYHDNLVSKYAEEINYFK”, the “soluble fraction (log2)” value was -2.51.
For “HMEETEVPPVTGYEQSKASEVLTGKGLIPDIITVADEETAAGYVIRTDPASGEKVPSGTTVKVYVSSGP”, the “soluble fraction (log2)” value was 0.159.
With “HMEETGFYIKLQDQEVVIFHNDQVTPYEYTGIREEVLPESELEKLREGFFVEDEKELYSVLENLS” the “soluble fraction (log2)” value was -0.142.
In the case of “HMEETLEELGKEYESAFTMYEKLWSYYKKQNYHQVNHKRSERYEILLGFVREYHPEKVEYYRELL”, the “soluble fraction (log2)” value is reported as 0.0169.
In the case of “HMEETLRALAKKISEKVLKSGRSTTLEPMNPYERRIIHSAVSEIEGVSSKSVGEEPYRKVVISSDNP”, the “soluble fraction (log2)” value is reported as 0.0364.
With “HMEETLRELAVKISKQVIKTGRNSVLEPMNPYERRIIHAVISEIEGVSSKSVGEDPNRKVVIMSTNP” the “soluble fraction (log2)” value was -0.126.
For “HMEEYTVEFVKHKVKRKQTLYTISKLYNVSIDDIIKYNSQIEGFNLSRRMELNIPVKKTLIVKNE”, the “soluble fraction (log2)” value was -1.7.
With “HMEFDTEFVLRQAMHAFMQYGYAKTSMQKLKEATHLHPGSIYAAYGNKKGLFLAATEQYQKDR” the “soluble fraction (log2)” value was -0.0761.
For “HMEFEYFQLRDHLYNLIMHPDKEKLKKDPDYLKLMSMAFSLLEDQNVGKDILEIAIKSIENFK”, the “soluble fraction (log2)” value was -0.573.
In the case of “HMEFLDLEIDVDATDGRLLAFLAAKGEVVSQTFNDTIITVRVRMPTGAMGQVHRSALAIRPA”, the “soluble fraction (log2)” value is reported as -0.507.
In the case of “HMEFLDQAFLHETMRKVNQDATINLLKKVYEVPQKFIGRKVTVQYDPEDLSRVYVKDLSFPEPVTVYPV”, the “soluble fraction (log2)” value is reported as -0.0595.
In the case of “HMEFNDLNDDEKAILHIMYNTGEKMTTALAARITNRGRNFASKLLKSLVKKEILEWHGTSKQDRNQYYTLA”, the “soluble fraction (log2)” value is reported as -0.0326.
With “HMEFQVKVIVSSLNIRSGPGTSYDTLGTVTKGDIFTIVETNSDSTWGKMQSGGWISIKDAYVKK” the “soluble fraction (log2)” value was -0.688.
In the case of “HMEFTFTLPRGYIDDTGMIHREGTMRLANAADEILPLKDPRVQQNPGYLTIILLARVITKLGSL”, the “soluble fraction (log2)” value is reported as 0.277.
With “HMEFTKSPLDEIAGVGPARKRALLAAFGTAKAVSQAALADLEKTPGVNAATARLVYAHFHEK” the “soluble fraction (log2)” value was -0.143.
For “HMEFTVFMNSAGGSKLQVVKTVKELTGLGLKEAKAIVDGSPGPVKEGLSKADAEAMLAKLQEAGADVEL”, the “soluble fraction (log2)” value was -0.0948.
With “HMEFYYSDLVGMIVYDTGGNELGKVQAVLNHGAGDLLEIHGVNLKTSILIPFTKEAVPTVDIAARRIVTDP” the “soluble fraction (log2)” value was 0.0733.
With “HMEGAEDMNRALALAFLRDNSRSTVAQLAEHLGSSKRSAERLVAQLKDEGVLERQGSPRAGLWIVHI” the “soluble fraction (log2)” value was -0.0818.
For “HMEGEVVESPLVGVAYLASGPDKPAFVQVGDSVSKGQTLLIIEAMKVMNEVPAPRDGIVTEILV”, the “soluble fraction (log2)” value was 0.0266.
In the case of “HMEGFSAGQFVRASVDNTAFYLKRPKGDAVADKLLRRGASMKVISASGDYLKVELDSGEVGFVPPVMVE”, the “soluble fraction (log2)” value is reported as 0.05.
For “HMEGIWAVFYDGKPINLKSSSLVANYPGPKYKKVSFSNPGHAENLAKKLNAQHNTDKFGVYLLKSGDKFS”, the “soluble fraction (log2)” value was -0.00158.
In the case of “HMEGMSIYVTVNGDMVHLTGKMSYVFVDVFEHIDFDLSKPQGSGIVTKLNGRDAQYMEEIRSGDMIEIYWR”, the “soluble fraction (log2)” value is reported as -0.133.
In the case of “HMEGNLVEIFEDAFGRTMSTMDIEYINQFKRTGYDDEMIVSALREAVKSNALSFRYIERVLENWAHS”, the “soluble fraction (log2)” value is reported as -0.202.
With “HMEGTEVTTEPPGAQIEFDGKQFGPTPTRVPGLAAGKQFRITLAGYQEAKPKLKNNPKEGEPLSFTLTAI” the “soluble fraction (log2)” value was 0.406.
In the case of “HMEGTVQQDKFDAYKAKFEDAISNDLNTSMAITIIYDLLKDDMNDKTKLALINDFDKVLSLNLTTA”, the “soluble fraction (log2)” value is reported as -0.255.
For “HMEGVTVPDVTRISLDEAEELLTSYGLRFEVADRRANSAFPGNYVIDQAPSAEVIVKPNRKIYLTVNAA”, the “soluble fraction (log2)” value was -0.134.
For “HMEHDTVLSKVFRRLREAHVPLSLDDIYQGLRKTVNNNSEIREKIVTLQERGLVAEILGPKGGKKYVAKPT”, the “soluble fraction (log2)” value was -0.105.
